Sequences and labels used below:
B1: PR003250 (antibody, human IgG1, kappa, V domains shown)
VH: QVQLVESGGGVVQPGRSLRLSCAASGFTFSDYGIHWVRQAPGKGLEWVAVIWYDGSDKYYADSVRGRFTISRDNSKNTLSLQMNSLRAEDTAVYYCARDRSSGAMGYFAYWGQGTLVTVSS
VL: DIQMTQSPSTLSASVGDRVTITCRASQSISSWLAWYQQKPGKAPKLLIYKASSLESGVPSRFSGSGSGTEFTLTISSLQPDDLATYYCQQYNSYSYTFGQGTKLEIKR
notes: Human IgG1; also called 34G2E6
B2: PR003248 (antibody, human IgG1, kappa, V domains shown)
VH: QVQLVESGGGVVQPGRSLRLSCAASGFTFSDYGLHWVRQAPGRGLEWVAVIWYDGSEEYYADSVKGRFTISRDNSKKSLYLQMNSLRAEDTAVYFCARDRNSGALGYFPHWGQGTLVTVSS
VL: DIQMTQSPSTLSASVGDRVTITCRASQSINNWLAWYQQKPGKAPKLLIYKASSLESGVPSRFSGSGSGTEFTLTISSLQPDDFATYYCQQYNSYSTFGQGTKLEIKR
notes: Human IgG1, fully human, from Harbour H2L2 mice; also called 13D8D2
B3: PR003266 (antibody, human IgG1, kappa, V domains shown)
VH: B1 VH with I34M, V50I, D57N, R65K, S80Y, M105L, A109Q, Y110H
VL: not shown
notes: Human IgG1; also called 7D3D2
B4: PR003252 (antibody, human IgG1, kappa, V domains shown)
VH: QVQLVESGGGVVQPGRSLRLSCAASGFTFSNYAMHWVRQVPGKGLEWVALIWYDGSEKYYADSVKGRFTISRDDSKNTLFLQMSSLRAEDTAVYSCVREYSSGWGYFDYWGQGTQVTVSS
VL: DIQMTQSPSTLSASVGDRVTITCRASQSISSWLAWYQQKPGKAPKLLIYKASSLKSGVPSRFSGSGSGTEFTLTISSLQPDDFATYYCLQYNSYYTFGQGTKLEIKR
notes: Human IgG1; also called 53C12D4
B5: PR003261 (antibody, human IgG1, kappa, V domains shown)
VH: QVQLVESGGGVVQPGRSLRLSCAASGFTFSNYGMHWVRQAPGKGLEWVAVIWYDGTNKNYADSVKGRFTISRDNSKNTLDLQMNSLRAEDTAVYFCARDRNTAMDYFVYWGQGTLVTVSS
VL: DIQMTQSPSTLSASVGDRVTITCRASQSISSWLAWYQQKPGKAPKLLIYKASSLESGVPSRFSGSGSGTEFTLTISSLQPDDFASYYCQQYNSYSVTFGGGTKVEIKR
notes: Human IgG1; also called 74A11E4

Substitutions are numbered along the chain they refer to.

For one test, the target named is T1, human B7-H7 on the cell surface (human, UniProt Q9UM44 23-414).
T1 construct: whole, on cells; also called hB7-H7; hu B7-H7
T1 sequence (looked up): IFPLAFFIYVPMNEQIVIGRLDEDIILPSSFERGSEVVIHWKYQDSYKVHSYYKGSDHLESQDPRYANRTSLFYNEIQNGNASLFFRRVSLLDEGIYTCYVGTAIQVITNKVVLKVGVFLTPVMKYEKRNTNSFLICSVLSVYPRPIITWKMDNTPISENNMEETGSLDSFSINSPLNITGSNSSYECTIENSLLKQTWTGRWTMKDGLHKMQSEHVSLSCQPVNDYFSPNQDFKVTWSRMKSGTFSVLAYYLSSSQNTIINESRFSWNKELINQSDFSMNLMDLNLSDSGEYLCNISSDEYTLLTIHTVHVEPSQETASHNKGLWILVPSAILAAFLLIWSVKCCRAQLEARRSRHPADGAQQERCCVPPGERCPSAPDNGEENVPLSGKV
Nature of the test: flow cytometry, HCC827 cells. On the procedure: (§1) This example was intended to study the in vitro activity of H2L2 monoclonal antibodies against human B7-H7 in binding to human/cynomolgus monkey B7-H7. Since homologous molecules of B7-H7 were not present in mice, the detection was not performed. […] The cells were adjusted to a cell density of 1×10⁶ cells/mL, respectively. The cells were seeded in a 96-well V-bottom plate (Corning, #3894) at 100 μL/well, and the antibody to be tested at 2× final concentration with 3-fold concentration gradient dilution was then added at 100 μL/well. The cells were incubated at 4° C. for 2 hours in the dark. After the incubation, the cells were rinsed twice by adding pre-chilled PBS containing 2% BSA at 100 μl/well, and centrifuged at 500 g at 4° C. for 5 minutes, and the supernatant was discarded. […] The cells were washed twice by adding pre-chilled PBS containing 2% BSA at 100 μL/well, and centrifuged at 500 g at 4° C. for 5 minutes, and the supernatant was discarded. Finally, the cells were resuspended in pre-chilled PBS containing 2% BSA at 200 μL/well, and the fluorescence signal values were read using an ACEA Novocyte3000 flow cytometer.
With B1, the EC50 came out at 0.00294 nM and the “Maximum MFI” value is 68800 MFI.

As for B2, a half-maximal response (EC50) required 0.0399 nM and the “Maximum MFI” value amounted to 68600 MFI.

With B3, the concentration for a half-maximal effect (EC50) is 0.0477 nM and the “Maximum MFI” value was found to be 49300 MFI.

Regarding B4, the “Maximum MFI” value was found to be 69400 MFI.

In the case of B5, the response was half-maximal at 0.0445 nM (EC50) and the “Maximum MFI” value is 60100 MFI.

The next test addresses T1, human B7-H7 on the cell surface. The experiment in a line: flow cytometry, HEK-293/hu B7-H7 cells. On the procedure: as §1
Take B1: the 50% effective concentration (EC50) was determined as 0.995 nM and the “Maximum MFI” value came to 823000 MFI.

As for B2, it took 1.81 nM to reach a half-maximal effect (EC50) and the “Maximum MFI” value stood at 981000 MFI.

Regarding B3, a half-maximal effect (EC50) was put at 0.663 nM and the “Maximum MFI” value is 531000 MFI.

Take B4: the concentration for a half-maximal effect (EC50) came to 1.04 nM and the “Maximum MFI” value was 837000 MFI.

Regarding B5, the EC50 came to 0.941 nM and the “Maximum MFI” value stood at 723000 MFI.

The next test deals with T2, cynomolgus monkey B7-H7 on the cell surface (cynomolgus monkey).
T2 construct: whole, on cells; also called cyno B7-H7
The experiment in a line: flow cytometry, HEK-293/cyno B7-H7 cells. On the procedure: as §1
In the case of B1, the concentration giving a half-maximal response (EC50) stood at 0.399 nM and the “Maximum MFI” value came to 405000 MFI.

Take B2: the concentration for a half-maximal effect (EC50) turned out to be 8.51 nM and the “Maximum MFI” value was 698000 MFI.

Consider B3, for which the EC50 came to 0.211 nM and the “Maximum MFI” value was 170000 MFI.

Regarding B4, the EC50 stood at 0.429 nM and the “Maximum MFI” value worked out at 414000 MFI.

Turning to B5, the midpoint of the response, the EC50, lay at 0.326 nM and the “Maximum MFI” value amounted to 275000 MFI.

The target of another test is T3, biotinylated human B7-H7 protein (Acro Biosystems, B77-H82F5) (human, UniProt Q9UM44 23-344, biotinylated).
T3 construct: Bought soluble protein; also called biotin-B7H7 protein
T3 sequence (looked up): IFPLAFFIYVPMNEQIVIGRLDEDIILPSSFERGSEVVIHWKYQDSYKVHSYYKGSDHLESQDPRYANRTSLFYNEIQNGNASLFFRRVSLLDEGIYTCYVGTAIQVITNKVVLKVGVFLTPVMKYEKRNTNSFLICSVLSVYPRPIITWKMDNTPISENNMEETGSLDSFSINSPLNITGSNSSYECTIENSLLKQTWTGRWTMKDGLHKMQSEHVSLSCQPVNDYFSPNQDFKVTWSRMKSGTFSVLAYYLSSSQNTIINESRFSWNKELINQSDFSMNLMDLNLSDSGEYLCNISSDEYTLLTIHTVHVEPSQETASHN
The experiment in a line: flow cytometry, blocking of biotinylated human B7-H7 binding to HEK-293/CD28H cells. Here is the method:
This example was intended to study the in vitro blocking activity of human anti-B7-H7 antibodies against the binding of human B7-H7 to its receptor CD28H. […] The cells were adjusted to a cell density of 1×10⁶ cells/mL. […] The cells were incubated at 4° C. for 1 hour in the dark. […] The cells were rinsed twice by adding pre-chilled PBS containing 2% BSA at 100 μL/well, and were centrifuged at 500 g at 4° C. for 5 minutes, and the supernatant was discarded. A fluorescent secondary antibody (PE Streptavidin, BD, Cat #: 554061, 1:200) was added at 100 μL/well, and the cells were incubated at 4° C. for 30 minutes in the dark. The cells were washed twice by adding pre-chilled PBS at 200 μL/well, and centrifuged at 500 g at 4° C. for 5 minutes, and the supernatant was discarded. Finally, the cells were resuspended in pre-chilled PBS at 200 μL/well, and the fluorescence signal values were read using an ACEA Novocyte3000 flow cytometer. IC50 was calculated.
As for B1, the half-maximal inhibitory concentration (IC50) turned out to be 1.41 nM and the “Maximum inhibition rate (%)” value came to 101%.

As to B2, the half-inhibitory concentration (IC50) came out at 1.87 nM and the “Maximum inhibition rate (%)” value was 101%.

Take B3: the IC50 was 1.57 nM and the “Maximum inhibition rate (%)” value amounted to 101%.

Turning to B4, the IC50 came to 1.43 nM and the “Maximum inhibition rate (%)” value was found to be 101%.

In the case of B5, the concentration for half-maximal inhibition (IC50) stood at 1.49 nM and the “Maximum inhibition rate (%)” value came out at 100%.

The target in a further test is T3, biotinylated human B7-H7 protein (Acro …). Nature of the test: flow cytometry, blocking of biotinylated human B7-H7 binding to CHO-K1/KIR3DL3 cells. The source says:
This example was intended to study the in vitro blocking activity of human anti-B7-H7 antibodies against the binding of human B7-H7 to its receptor KIR3DL3. A CHO-K1 cell (CHO-K1/KIR3DL3, Harbour BioMed US, Inc.) overexpressing human KIR3DL3 was used in experiments at the cellular level where human B7-H7/human KIR3DL3 binding was blocked. Briefly, the CHO-K1/KIR3DL3 cells were digested and resuspended in PBS containing 2% BSA. The cells were adjusted to a cell density of 1×10⁶ cells/mL. […] The cells were incubated at 4° C. for 1 hour in the dark. […] The cells were rinsed twice by adding pre-chilled PBS containing 2% BSA at 100 μL/well, and were centrifuged at 500 g at 4° C. for 5 minutes, and the supernatant was discarded. A fluorescent secondary antibody (PE Streptavidin, BD, Cat #: 554061, 1:200) was added at 100 μL/well, and the cells were incubated at 4° C. for 30 minutes in the dark. The cells were washed twice by adding pre-chilled PBS at 200 µL/well, and centrifuged at 500 g at 4° C. for 5 minutes, and the supernatant was discarded. Finally, the cells were resuspended in pre-chilled PBS at 200 μL/well, and the fluorescence signal values were read using an ACEA Novocyte3000 flow cytometer. IC50 was calculated.
On to B1, for which the concentration for half-maximal inhibition (IC50) is 8.49 nM and the “Maximum inhibition rate (%)” value stood at 97.2%.

For B2, the half-inhibitory concentration (IC50) amounted to 12.9 nM and the “Maximum inhibition rate (%)” value amounted to 99.3%.

For B3, the IC50 was found to be 8.55 nM and the “Maximum inhibition rate (%)” value came to 102%.

With B4, the IC50 is 7.59 nM and the “Maximum inhibition rate (%)” value came to 97.1%.

Turning to B5, the half-inhibitory concentration (IC50) turned out to be 7.5 nM and the “Maximum inhibition rate (%)” value was 105%.

A further test addresses T4, human B7-H7 recombinant protein (human, UniProt Q9UM44 23-344).
T4 construct: also called human B7-H7 protein
T4 sequence (looked up): T3 sequence (looked up)
The experiment in a line: BLI (Octet), antibody captured on AHC sensor, human B7-H7 in solution, 1:1 global fit. On the procedure:
The binding kinetics between antigen and antibody was analyzed using an Octet Red 96e (Fortebio) molecular interaction analyzer by biolayer interferometry (BLI) technology.
For determining the affinity of antibodies for antigens, the rotary speed of the sensor was set at 1000 rpm. AHC sensors (Fortebio, #18-5060) placed in one column were first equilibrated in a test buffer for 10 minutes, and then used to capture the anti-B7-H7 antibodies at a capture height of 0.7 nm; and after being equilibrated in the buffer for 120 s, the AHC sensors bound to human B7-H7 (concentrations: 50-3.125 nM and 0 nM) with 2-fold gradient dilution for 180 s and dissociated for 300 s. The AHC sensors were finally regenerated by immersing in a 10 mM glycine-hydrochloric acid solution with pH 1.5 to elute the protein bound to the sensors.
For data analysis using Octet Data Analysis software (Fortebio, version 11.0), 0 nM well was used as the reference well, reference subtraction was performed, “1:1 Global fitting” method was selected for data fitting, the kinetic parameters of the binding of the antigen to the antigen-binding protein were calculated, and the kₒₙ (1/Ms) value, kdis (1/s) value and KD (M) value were obtained.
B1: the equilibrium dissociation constant (Kd) was found to be 2.91 nM, the koff was found to be 0.000271 s⁻¹ and the on-rate constant (kon) is 93200 M⁻¹ s⁻¹.

Take B2: the equilibrium dissociation constant (Kd) turned out to be 1.6 nM, the koff came to 0.00014 s⁻¹ and the kon was determined as 88000 M⁻¹ s⁻¹.

For the molecule B3, the equilibrium dissociation constant (Kd) stood at 9.93 nM, the koff turned out to be 0.000648 s⁻¹ and the association rate constant (kon) came to 65200 M⁻¹ s⁻¹.

Turning to B4, the equilibrium dissociation constant (Kd) turned out to be 1.06 nM, the dissociation rate constant (koff) was 0.000132 s⁻¹ and the association rate constant (kon) was determined as 125000 M⁻¹ s⁻¹.

Regarding B5, the dissociation constant (Kd) was 4.6 nM, the koff turned out to be 0.000336 s⁻¹ and the kon is 73000 M⁻¹ s⁻¹.

The next test addresses T3, biotinylated human B7-H7 protein (Acro …). The experiment in a line: BLI epitope competition on SA-captured biotinylated B7-H7; competitor (first antibody) PR003249. On the procedure:
Epitope competition experiments were performed on the anti-B7-H7 antibodies using the ForteBio Octet Red96e platform with the same experimental buffer as described above. […] After being equilibrated in a buffer for 120 s, the sensors were immersed in various antibodies diluted to 100 nM for 240 s, and the final signal of the antibody binding to B7-H7 was recorded as the 100% signal for that antibody. Second step, epitope competition experiment: B7-H7 was captured using SA sensors at a capture height of 0.25 nm. The sensors were immersed in a first antibody (concentration: 100 nM) for 240 s, then the SA sensors were immersed in a mixture of the first antibody and a second antibody (final concentration of both antibodies: 100 nM) for 240 s, and the difference in signals before and after immersing the sensors in the mixture of the two antibodies was recorded as the signal for that antibody as the second antibody. The inhibition rate was calculated by the following equation, […]
Regarding B1, the “Competitive inhibition rate (%)” value turned out to be 103%.

As to B2, the “Competitive inhibition rate (%)” value was found to be 108%.

Turning to B3, the “Competitive inhibition rate (%)” value is 107%.

As for B4, the “Competitive inhibition rate (%)” value is 107%.

With B5, the “Competitive inhibition rate (%)” value amounted to 111%.

These data come from US20250136696A1 (HARBOUR BIOMED SHANGHAI, published 2025).
